According to patent US20120309934A1 (GWANGJU INSTITUTE OF SCIENCE AND TECHNOLOGY, published 2012):
Read-outs that look alike come from different tables or passages of the source.

Tests used:
[1] = target: T1, Fibronectin ED-B protein (human fibronectin extra domain B, N-terminal His-tag) (human, UniProt P02751 1266-1356, biotinylated with sulfo-NHS-SS-biotin for biopanning, input-phage ELISA and SPR on the streptavidin chip); experiment: SPR, synthetic bipodal peptide on ED-B
T1 construct: domain: ED-B; Expressed in E. coli BL21 from pET28b; also called biotinylated-EDB; not shown: N-terminal His-tag from the pET28b vector
T1 sequence (P02751 1266-1356): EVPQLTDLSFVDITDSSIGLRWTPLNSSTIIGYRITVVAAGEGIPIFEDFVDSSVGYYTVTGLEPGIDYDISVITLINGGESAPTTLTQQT
Description: (§1) Bipodal-peptide binder peptides specific to ED-B, VEGF or nAchR which were repetitively found in DNA sequencing were synthesized from Anigen Inc. (Korea). Affinity was measured using BIAcore X instrument (Biacore AB, Uppsala, Sweden). ED-B and nAchR were immobilized on streptavidin (SA) chip (Biacore) by injecting 2,000 RU biotinylated-EDB. VEGF was immobilized on CM5 chip (Biacore) using EDC/NHS. PBS (pH 7.4) was used as a running buffer.
To verify cooperative effect of bipodal-peptide binder to antigen, we synthesized two peptides removing either N- or C-terminal region of peptide 2 to ED-B having excellent specificity in Table 3a for affinity measurement.

BSA [2] = target: T2, BSA (UniProt P02769 25-607); experiment: phage ELISA, absorbance at 450 nm
T2 construct: Control protein in the input-phage ELISA; also called bovine serum albumin
T2 sequence (P02769 25-607 limits assumed): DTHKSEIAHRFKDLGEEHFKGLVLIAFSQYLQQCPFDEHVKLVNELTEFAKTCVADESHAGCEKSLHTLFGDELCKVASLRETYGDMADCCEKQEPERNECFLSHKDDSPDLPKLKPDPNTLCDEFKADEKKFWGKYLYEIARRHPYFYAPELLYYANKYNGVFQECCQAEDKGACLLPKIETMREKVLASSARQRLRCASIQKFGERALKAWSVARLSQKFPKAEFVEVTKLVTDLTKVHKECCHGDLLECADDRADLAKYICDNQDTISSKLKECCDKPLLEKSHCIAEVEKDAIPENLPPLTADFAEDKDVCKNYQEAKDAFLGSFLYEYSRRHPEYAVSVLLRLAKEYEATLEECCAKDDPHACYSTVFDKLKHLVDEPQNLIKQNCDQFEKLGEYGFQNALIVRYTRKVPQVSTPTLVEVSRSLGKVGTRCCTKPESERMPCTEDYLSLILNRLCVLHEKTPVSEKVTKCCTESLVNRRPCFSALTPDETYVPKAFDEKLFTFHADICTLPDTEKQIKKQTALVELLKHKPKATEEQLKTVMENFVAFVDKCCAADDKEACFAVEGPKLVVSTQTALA

Streptavidin [3] = target: T3, Streptavidin (UniProt P22629 37-163, limits assumed); experiment: phage ELISA, absorbance at 450 nm
T3 construct: Control protein in the input-phage ELISA; also called straptavidin
T3 sequence (P22629 37-163 limits assumed): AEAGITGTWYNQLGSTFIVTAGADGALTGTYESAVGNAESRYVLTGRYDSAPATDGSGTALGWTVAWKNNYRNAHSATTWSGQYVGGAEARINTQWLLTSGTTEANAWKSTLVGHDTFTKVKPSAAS

[4] = target: T1, Fibronectin ED-B protein (human …); experiment: SPR (BIAcore X), biotinylated ED-B on SA chip
Description: as §1
(§2) The above-mentioned peptides were synthesized and their affinities to fibronectin ED-B, VEGF, VCAM1, nAchR and HAS were measured using SPR Biacore system (Biacore AB, Uppsala, Sweden).

[5] = target: T1, Fibronectin ED-B protein (human …); experiment: SPR (BIAcore X), biotinylated ED-B on streptavidin chip, synthetic peptide as analyte
Description: as §1, §2

[6] = target: T1, Fibronectin ED-B protein (human …); experiment: phage ELISA on 10 coated proteins (streptavidin, ED-B, acetylcholine α1, BSA, VCAM, TNF-α, thrombin, myoglobin, lysozyme, visfatin), anti-M13-HRP
Description: Specificity of recombinant phages to each protein was carried out using ELISA. Each protein (5 μg/ml) was seeded into wells (50 μl per well) in a 96-well ELISA plate and next day, all wells were washed with 0.1% PBST (Tween-20) three times, and blocked at room temperature for 2 hrs using 2% skim milk. Then, the solution was completely removed and the plate was washed with 0.1% PBST three times. Recombinant phages containing the peptide of the present invention were thoroughly mixed with 2% BSA. Each mixture (100 μl) was divided into wells coated with 10 proteins and kept to stand at 27° C. for 2 hrs. After washing with 0.1% PBST 5 times, HRP-conjugated anti-M13 antibodies (1:1,000 dilution; GE Healthcare) were added to each well and incubated at 27° C. for 1 hr. After washing with 0.1% PBST 5 times, 100 μl TMB was divided into each well to induce colorimetric reaction, followed by stopping the reaction adding 100 μl of 1 M HCl. The absorbance was measured at 450 nm.

Human serum albumin [7] = target: T4, Human serum albumin (human, UniProt P02768 25-609); experiment: SPR (Biacore)
T4 construct: Bought protein; also called HSA; HAS
T4 sequence (P02768 25-609 limits assumed): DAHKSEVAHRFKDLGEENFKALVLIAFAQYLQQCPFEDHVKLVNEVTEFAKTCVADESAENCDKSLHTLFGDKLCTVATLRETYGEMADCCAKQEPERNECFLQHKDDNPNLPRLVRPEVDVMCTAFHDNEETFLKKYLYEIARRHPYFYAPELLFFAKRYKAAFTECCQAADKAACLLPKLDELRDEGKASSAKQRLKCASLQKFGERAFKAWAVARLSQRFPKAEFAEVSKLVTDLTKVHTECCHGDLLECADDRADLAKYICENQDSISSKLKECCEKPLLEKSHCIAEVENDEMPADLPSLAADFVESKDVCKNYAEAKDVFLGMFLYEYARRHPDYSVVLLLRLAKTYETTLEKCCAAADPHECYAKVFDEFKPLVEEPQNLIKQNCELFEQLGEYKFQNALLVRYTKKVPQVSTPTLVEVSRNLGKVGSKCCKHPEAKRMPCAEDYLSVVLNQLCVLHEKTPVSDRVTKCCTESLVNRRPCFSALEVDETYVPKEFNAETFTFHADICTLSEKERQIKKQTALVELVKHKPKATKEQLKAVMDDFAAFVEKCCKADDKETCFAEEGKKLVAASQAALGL

Streptavidin [8] = target: T3, Streptavidin; experiment: phage ELISA, absorbance at 450 nm; remark: listed apart in the source
Human serum albumin [9] = target: T4, Human serum albumin; experiment: SPR (Biacore), synthetic peptide; immobilisation of HSA not described
[10] = target: T5, VEGF121 (human vascular endothelial growth factor) (human, UniProt P15692-9 27-147); experiment: phage ELISA, absorbance at 450 nm
T5 construct: Immobilised on a CM5 chip by EDC/NHS for SPR and coated on plates for phage ELISA; also called VEGF-Trx cut with thrombin
T5 sequence (looked up): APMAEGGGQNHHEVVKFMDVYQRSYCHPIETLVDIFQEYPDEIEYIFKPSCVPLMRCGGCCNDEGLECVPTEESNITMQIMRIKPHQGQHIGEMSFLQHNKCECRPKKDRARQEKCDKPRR

BSA [11] = target: T2, BSA; experiment: phage ELISA, absorbance at 450 nm; remark: listed apart in the source
[12] = target: T5, VEGF121 (human vascular endothelial …); experiment: phage ELISA, absorbance at 450 nm; remark: listed apart in the source
Streptavidin [13] = target: T3, Streptavidin; experiment: phage ELISA, absorbance at 450 nm; remark: listed apart in the source
STAT3 protein [14] = target: T6, STAT3 protein (UniProt P40763 1-770, limits assumed); experiment: phage ELISA of single clones on STAT3 against streptavidin
T6 sequence (P40763 whole entry): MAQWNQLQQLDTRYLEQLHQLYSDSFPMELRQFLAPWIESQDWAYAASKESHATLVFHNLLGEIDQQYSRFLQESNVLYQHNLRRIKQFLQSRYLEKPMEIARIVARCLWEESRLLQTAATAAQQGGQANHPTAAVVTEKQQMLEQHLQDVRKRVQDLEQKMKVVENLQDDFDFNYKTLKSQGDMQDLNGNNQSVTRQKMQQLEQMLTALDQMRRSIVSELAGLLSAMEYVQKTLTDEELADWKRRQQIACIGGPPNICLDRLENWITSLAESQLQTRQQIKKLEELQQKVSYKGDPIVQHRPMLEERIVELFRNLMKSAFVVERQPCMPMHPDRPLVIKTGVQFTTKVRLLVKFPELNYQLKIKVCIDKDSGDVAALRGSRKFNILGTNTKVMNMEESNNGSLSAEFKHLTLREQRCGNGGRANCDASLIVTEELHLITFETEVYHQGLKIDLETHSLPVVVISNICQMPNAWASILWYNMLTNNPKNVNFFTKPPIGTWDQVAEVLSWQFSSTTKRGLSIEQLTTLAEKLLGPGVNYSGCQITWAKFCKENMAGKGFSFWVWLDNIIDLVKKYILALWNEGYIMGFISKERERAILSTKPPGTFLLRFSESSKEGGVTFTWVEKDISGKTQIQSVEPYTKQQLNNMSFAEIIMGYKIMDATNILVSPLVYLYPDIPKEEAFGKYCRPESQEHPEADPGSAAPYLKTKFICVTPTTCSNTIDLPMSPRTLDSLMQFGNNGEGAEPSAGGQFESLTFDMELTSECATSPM
Description: STAT3 (10 μg/ml), BSA (10 μg/ml) and streptavidin (10 μg/ml) each was added to 30 wells (50 μl per well) in a 96-well ELISA plate and then kept to stand at 4° C. overnight. Next day, all wells were washed with 0.1% PBST three times, and blocked at room temperature for 2 hrs using 2% skim milk diluted with PBS. Then, the solution was removed and the plate was washed with 0.1% PBST three times. Phage peptide solution (100 μl) amplified from each clone was aliquoted to STAT3-bound wells and streptavidin protein-bound wells and kept to stand at 27° C. for 1.5 hrs. After washing with 0.1% PBST 10 times, HRP-conjugated anti-M13 antibodies (1:1,000 dilution; GE Healthcare) were added to each well and incubated at 27° C. for 1 hr. After washing with 0.1% PBST 5 times, 100 μl TMB was divided into each well to induce colorimetric reaction, followed by stopping the reaction adding 100 μl of 1 M HCl. The absorbance was measured at 450 nm to select phages which had the absorbance above 20-fold higher than BSA. XL1 cells were infected with these phages and spread in plate to produce 100-200 of plaques. […]
The phages recovered from the 4th biopanning step having the highest O/I ratio in each library were isolated as plaques. […] The DNA 10 sequencing was performed for 6 clones showing the absorbance value above 2-fold higher than streptavidin. […]

BSA [15] = target: T2, BSA; experiment: phage ELISA, absorbance at 450 nm; remark: listed apart in the source
[16] = target: T5, VEGF121 (human vascular endothelial …); experiment: phage ELISA, absorbance at 450 nm; remark: listed apart in the source
Human serum albumin [17] = target: T4, Human serum albumin; experiment: phage ELISA, absorbance at 450 nm
Streptavidin [18] = target: T3, Streptavidin; experiment: phage ELISA, absorbance at 450 nm; remark: listed apart in the source
STAT3 protein [19] = target: T6, STAT3 protein; experiment: SPR (Biacore X), STAT3 (4000 RU) on CM5 chip, peptide at 2, 5 and 7.5 µM
Description: The peptide sequences were identified by DNA sequencing. Two peptides were synthesized (BPB1: QAYYIP […] LWGPEF; BPB2: HGFQWP […] AYQFLK).
The affinity of the bipodal-peptide binder (BPB1: QAYYIP […] LWGPEF) was measured using SPR (Biacore X). The STAT3 protein (4000 RU) was fixed onto the CM5 chip. The concentrations of 2 μM, 5 μM and 7.5 μM the bipodal-peptide binder were used.

BSA [20] = target: T2, BSA; experiment: phage ELISA, absorbance at 450 nm; remark: listed apart in the source
[21] = target: T7, Peptide fragment of nAchR (Nicotinic acetylcholine receptor), 32 mer, biotinylated (N-terminal biotin); experiment: SPR (BIAcore X), biotinylated nAchR peptide on SA chip
T7 construct: Synthesised by Anigen; Immobilised on a streptavidin chip for SPR; also called biotinylated nAchR; biotinylated-nAchR peptide
T7 peptide: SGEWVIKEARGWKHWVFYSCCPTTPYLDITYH
Description: as §1, §2

[22] = target: T7, Peptide fragment of nAchR (Nicotinic …); experiment: SPR (BIAcore X), biotinylated nAchR peptide on streptavidin chip, synthetic peptide as analyte
Description: as §1, §2

B1: Peptide 2 specific to fibronectin ED-B (Table 3a), bipodal-peptide binder with tryptophan zipper (peptide)
peptide: HCSSAVGSWTWENGKWTWKGIIRLEQ
B1 was tested, and the Kd [1] was 43 nM, the binding result (BSA [2]) was “no binding” and the binding result (Streptavidin [3]) was “no binding”. The koff [4] was 0.0008 s⁻¹, the kon [4] was 10000 M⁻¹ s⁻¹ and the Kd [5] was 75 nM. For the same binder, the “fold absorbance over other proteins” value [6] was greater than 30 fold.

B2: Peptide 1 specific to HSA (Table 3e), bipodal-peptide binder (peptide)
peptide: AASPYKGSWTWENGKWTWKGGWRMKM
For B2, the koff (Human serum albumin [7]) was 0.02 s⁻¹, the kon (Human serum albumin [7]) was 250000 M⁻¹ s⁻¹ and the binding result (Streptavidin [8]) was “no binding”. For the same binder, the Kd (Human serum albumin [9]) was 115 nM.

B3: Peptide 1 specific to MyD88 (Table 3f), bipodal-peptide binder (peptide)
peptide: HSHAFYGSWTWENGKWTWKGNPGWWT
B3: no binding [10].

B4: STAT3-specific bipodal-peptide binder Peptide 2 (peptide)
peptide: HGFQWPGSWTWENGKWTWKGAYQFLK
notes: also called BPB2
B4: no binding (BSA [11]); no binding [12]; no binding (Streptavidin [13]). The “fold absorbance over streptavidin” value (STAT3 protein [14]) was greater than 2 fold.

B5: STAT3-specific bipodal-peptide binder Peptide 1 (peptide)
peptide: QAYYIPGSWTWENGKWTWKGLWGPEF
notes: also called BPB1; Peptidel
B5: no binding (BSA [15]); no binding [16]; no binding (Human serum albumin [17]). For the same binder, the binding result (Streptavidin [18]) was “no binding”, the “fold absorbance over streptavidin” value (STAT3 protein [14]) was greater than 2 fold and the Kd (STAT3 protein [19]) was roughly 1700 nM.

B6: Peptide 1 specific to nAchR (Table 3d), bipodal-peptide binder (peptide)
peptide: EASFWLGSWTWENGKWTWKGKGTLNR
In the case of B6, the binding result (BSA [20]) is reported as “no binding”, the koff [21] is reported as 0.0085 s⁻¹ and the kon [21] is reported as 110000 M⁻¹ s⁻¹. For the same binder, the Kd [22] was 73 nM.
